Measurements reported in article PMC12416549 (2024).

Biological target: T1, TNFR1 (Homo sapiens, UniProt P19438)
T1 chain: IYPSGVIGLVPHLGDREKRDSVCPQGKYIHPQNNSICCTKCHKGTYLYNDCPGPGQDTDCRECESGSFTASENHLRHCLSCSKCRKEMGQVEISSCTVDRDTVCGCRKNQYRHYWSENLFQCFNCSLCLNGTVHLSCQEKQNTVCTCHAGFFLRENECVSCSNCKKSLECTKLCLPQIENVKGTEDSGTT
Assay: yeast display SC50

Binder	apparent Kd (screen) [nM]
E92Y (designed binder) SMEEEVEKAAKEYEKKKKEAIEKHLEKLKAKDKEAAERFLKELEEAAKEYAKDEAKTMSEEEAKRRAKKYKEKVLLSELSEEEQKEIKEAEYKLVRTILKYVEEAAK	13.8
K31R (designed binder) SMEEEVEKAAKEYEKKKKEAIEKHLEKLKARDKEAAERFLKELEEAAKEYAKDEAKTMSEEEAKRRAKKYKEKVLLSELSEEEQKEIKEAEEKLVRTILKYVEEAAK	0.49
K71T (designed binder) SMEEEVEKAAKEYEKKKKEAIEKHLEKLKAKDKEAAERFLKELEEAAKEYAKDEAKTMSEEEAKRRAKKYTEKVLLSELSEEEQKEIKEAEEKLVRTILKYVEEAAK	0.49
K93C (designed binder) SMEEEVEKAAKEYEKKKKEAIEKHLEKLKAKDKEAAERFLKELEEAAKEYAKDEAKTMSEEEAKRRAKKYKEKVLLSELSEEEQKEIKEAEECLVRTILKYVEEAAK	1.54
S77P (designed binder) SMEEEVEKAAKEYEKKKKEAIEKHLEKLKAKDKEAAERFLKELEEAAKEYAKDEAKTMSEEEAKRRAKKYKEKVLLPELSEEEQKEIKEAEEKLVRTILKYVEEAAK	11.4
K16Q (designed binder) SMEEEVEKAAKEYEKQKKEAIEKHLEKLKAKDKEAAERFLKELEEAAKEYAKDEAKTMSEEEAKRRAKKYKEKVLLSELSEEEQKEIKEAEEKLVRTILKYVEEAAK	0.718
I98H (designed binder) SMEEEVEKAAKEYEKKKKEAIEKHLEKLKAKDKEAAERFLKELEEAAKEYAKDEAKTMSEEEAKRRAKKYKEKVLLSELSEEEQKEIKEAEEKLVRTHLKYVEEAAK	5.84
E37R (designed binder) SMEEEVEKAAKEYEKKKKEAIEKHLEKLKAKDKEAARRFLKELEEAAKEYAKDEAKTMSEEEAKRRAKKYKEKVLLSELSEEEQKEIKEAEEKLVRTILKYVEEAAK	0.446
V102M (designed binder) SMEEEVEKAAKEYEKKKKEAIEKHLEKLKAKDKEAAERFLKELEEAAKEYAKDEAKTMSEEEAKRRAKKYKEKVLLSELSEEEQKEIKEAEEKLVRTILKYMEEAAK	0.49
L43S (designed binder) SMEEEVEKAAKEYEKKKKEAIEKHLEKLKAKDKEAAERFLKESEEAAKEYAKDEAKTMSEEEAKRRAKKYKEKVLLSELSEEEQKEIKEAEEKLVRTILKYVEEAAK	0.49
D32G (designed binder) SMEEEVEKAAKEYEKKKKEAIEKHLEKLKAKGKEAAERFLKELEEAAKEYAKDEAKTMSEEEAKRRAKKYKEKVLLSELSEEEQKEIKEAEEKLVRTILKYVEEAAK	0.593
E92C (designed binder) SMEEEVEKAAKEYEKKKKEAIEKHLEKLKAKDKEAAERFLKELEEAAKEYAKDEAKTMSEEEAKRRAKKYKEKVLLSELSEEEQKEIKEAECKLVRTILKYVEEAAK	6.43
R66K (designed binder) SMEEEVEKAAKEYEKKKKEAIEKHLEKLKAKDKEAAERFLKELEEAAKEYAKDEAKTMSEEEAKRKAKKYKEKVLLSELSEEEQKEIKEAEEKLVRTILKYVEEAAK	10.4
E82H (designed binder) SMEEEVEKAAKEYEKKKKEAIEKHLEKLKAKDKEAAERFLKELEEAAKEYAKDEAKTMSEEEAKRRAKKYKEKVLLSELSEHEQKEIKEAEEKLVRTILKYVEEAAK	0.446
K27N (designed binder) SMEEEVEKAAKEYEKKKKEAIEKHLENLKAKDKEAAERFLKELEEAAKEYAKDEAKTMSEEEAKRRAKKYKEKVLLSELSEEEQKEIKEAEEKLVRTILKYVEEAAK	0.653
K85H (designed binder) SMEEEVEKAAKEYEKKKKEAIEKHLEKLKAKDKEAAERFLKELEEAAKEYAKDEAKTMSEEEAKRRAKKYKEKVLLSELSEEEQHEIKEAEEKLVRTILKYVEEAAK	0.869
L76K (designed binder) SMEEEVEKAAKEYEKKKKEAIEKHLEKLKAKDKEAAERFLKELEEAAKEYAKDEAKTMSEEEAKRRAKKYKEKVLKSELSEEEQKEIKEAEEKLVRTILKYVEEAAK	3.3
V74G (designed binder) SMEEEVEKAAKEYEKKKKEAIEKHLEKLKAKDKEAAERFLKELEEAAKEYAKDEAKTMSEEEAKRRAKKYKEKGLLSELSEEEQKEIKEAEEKLVRTILKYVEEAAK	1.05
E54A (designed binder) SMEEEVEKAAKEYEKKKKEAIEKHLEKLKAKDKEAAERFLKELEEAAKEYAKDAAKTMSEEEAKRRAKKYKEKVLLSELSEEEQKEIKEAEEKLVRTILKYVEEAAK	3.63
K68E (designed binder) SMEEEVEKAAKEYEKKKKEAIEKHLEKLKAKDKEAAERFLKELEEAAKEYAKDEAKTMSEEEAKRRAEKYKEKVLLSELSEEEQKEIKEAEEKLVRTILKYVEEAAK	1.4
A63T (designed binder) SMEEEVEKAAKEYEKKKKEAIEKHLEKLKAKDKEAAERFLKELEEAAKEYAKDEAKTMSEEETKRRAKKYKEKVLLSELSEEEQKEIKEAEEKLVRTILKYVEEAAK	16.7
A35Y (designed binder) SMEEEVEKAAKEYEKKKKEAIEKHLEKLKAKDKEYAERFLKELEEAAKEYAKDEAKTMSEEEAKRRAKKYKEKVLLSELSEEEQKEIKEAEEKLVRTILKYVEEAAK	1.27
H24V (designed binder) SMEEEVEKAAKEYEKKKKEAIEKVLEKLKAKDKEAAERFLKELEEAAKEYAKDEAKTMSEEEAKRRAKKYKEKVLLSELSEEEQKEIKEAEEKLVRTILKYVEEAAK	1.05
Y50W (designed binder) SMEEEVEKAAKEYEKKKKEAIEKHLEKLKAKDKEAAERFLKELEEAAKEWAKDEAKTMSEEEAKRRAKKYKEKVLLSELSEEEQKEIKEAEEKLVRTILKYVEEAAK	7.07
K48R (designed binder) SMEEEVEKAAKEYEKKKKEAIEKHLEKLKAKDKEAAERFLKELEEAAREYAKDEAKTMSEEEAKRRAKKYKEKVLLSELSEEEQKEIKEAEEKLVRTILKYVEEAAK	0.593
K27M (designed binder) SMEEEVEKAAKEYEKKKKEAIEKHLEMLKAKDKEAAERFLKELEEAAKEYAKDEAKTMSEEEAKRRAKKYKEKVLLSELSEEEQKEIKEAEEKLVRTILKYVEEAAK	1.05
